Assay results from the supplement of paper PMC9112550, “Optimization of the antimicrobial peptide Bac7 by deep mutational scanning” (BMC Biology, 2022).

System: Escherichia coli TOP10
Test: shrunken log2 fold change of peptide-encoding DNA abundance (4.5 h post-induction vs induction); higher = less antimicrobial activity (less host growth inhibition)
Details: time post-induction: 4.5 h; library: site-saturation at positions 5, 18, 19, 20
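Also: peptides expressed intracellularly from a pBAD plasmid library in pooled LB shake-flask culture, induced with 0.3% L-arabinose, DNA abundance read by NGS, three biological replicates, DESeq2 with apeglm shrinkage.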

| Sequence | shrunken log2 fold change |
| --- | --- |
| RRIRQRPPRLPRPRPRPNYVPRP | -0.426 |
| RRIRFRPPRLPRPRPRPMPMPRP | -0.00868 |
| RRIRGRPPRLPRPRPRPNSLPRP | 0.271 |
| RRIRFRPPRLPRPRPRPSLRPRP | -0.262 |
| RRIRTRPPRLPRPRPRPYGIPRP | -0.0927 |
| RRIRGRPPRLPRPRPRPGRNPRP | 0.307 |
| RRIRHRPPRLPRPRPRPWSIPRP | 0.0612 |
| RRIRDRPPRLPRPRPRPRMNPRP | -0.168 |
| RRIRERPPRLPRPRPRPKKNPRP | -0.0468 |
| RRIRDRPPRLPRPRPRPTYSPRP | -0.757 |
| RRIRLRPPRLPRPRPRPVMEPRP | 0.233 |
| RRIRGRPPRLPRPRPRPKVFPRP | -0.00639 |
| RRIRCRPPRLPRPRPRPLCIPRP | -0.353 |
| RRIRERPPRLPRPRPRPTDGPRP | 0.158 |
| RRIRIRPPRLPRPRPRPFPVPRP | -0.339 |
| RRIRWRPPRLPRPRPRPDNRPRP | -0.213 |
| RRIRARPPRLPRPRPRPPESPRP | 1.02 |
| RRIRFRPPRLPRPRPRPNFRPRP | 0.157 |
| RRIRDRPPRLPRPRPRPVKRPRP | 0.0129 |
| RRIRTRPPRLPRPRPRPYGPPRP | -0.406 |
| RRIRVRPPRLPRPRPRPEGNPRP | 0.00902 |
| RRIRIRPPRLPRPRPRPSFLPRP | -1.11 |
| RRIRARPPRLPRPRPRPCVWPRP | 0.544 |
| RRIRPRPPRLPRPRPRPLIQPRP | -0.0119 |
| RRIRLRPPRLPRPRPRPEFCPRP | 0.11 |

| Sequence | shrunken log2 fold change |
| --- | --- |
| RRIRMRPPRLPRPRPRPMLIPRP | -0.00481 |
| RRIRSRPPRLPRPRPRPNLQPRP | -0.141 |
| RRIRGRPPRLPRPRPRPRSRPRP | 0.368 |
| RRIRVRPPRLPRPRPRPAVAPRP | 0.266 |
| RRIRERPPRLPRPRPRPWLCPRP | -0.0006 |
| RRIRERPPRLPRPRPRPWARPRP | -0.0915 |
| RRIRTRPPRLPRPRPRPQENPRP | -0.165 |
| RRIRDRPPRLPRPRPRPKKRPRP | 0.403 |
| RRIRNRPPRLPRPRPRPPPQPRP | 0.931 |
| RRIRTRPPRLPRPRPRPFTQPRP | -0.487 |
| RRIRVRPPRLPRPRPRPKQTPRP | -0.0483 |
| RRIRLRPPRLPRPRPRPYHQPRP | -0.026 |
| RRIRIRPPRLPRPRPRPQDIPRP | -0.461 |
| RRIRYRPPRLPRPRPRPHRKPRP | -0.501 |
| RRIRPRPPRLPRPRPRPIGEPRP | -0.0647 |
| RRIRMRPPRLPRPRPRPWSFPRP | -0.33 |
| RRIRYRPPRLPRPRPRPPWKPRP | 0.0467 |
| RRIRFRPPRLPRPRPRPMSLPRP | -0.142 |
| RRIRWRPPRLPRPRPRPSIKPRP | -0.419 |
| RRIRRRPPRLPRPRPRPVAYPRP | 0.263 |
| RRIRCRPPRLPRPRPRPFVAPRP | -0.159 |
| RRIRVRPPRLPRPRPRPKRMPRP | 0.117 |
| RRIRIRPPRLPRPRPRPTWVPRP | -0.022 |
| RRIRLRPPRLPRPRPRPKFDPRP | -0.115 |
| RRIRQRPPRLPRPRPRPDDSPRP | -0.139 |

| Sequence | shrunken log2 fold change |
| --- | --- |
| RRIRKRPPRLPRPRPRPREIPRP | 0.736 |
| RRIRNRPPRLPRPRPRPDHSPRP | -0.22 |
| RRIRERPPRLPRPRPRPPCTPRP | 0.0136 |
| RRIRFRPPRLPRPRPRPDDEPRP | 0.066 |
| RRIRHRPPRLPRPRPRPEKEPRP | -0.00451 |
| RRIRARPPRLPRPRPRPDRHPRP | 0.0379 |
| RRIRTRPPRLPRPRPRPNKNPRP | -0.156 |
| RRIRVRPPRLPRPRPRPYGSPRP | -0.409 |
| RRIRLRPPRLPRPRPRPIGIPRP | -0.179 |
| RRIRHRPPRLPRPRPRPMIPPRP | 0.132 |
| RRIRKRPPRLPRPRPRPDYQPRP | -0.0353 |
| RRIRKRPPRLPRPRPRPHRTPRP | -0.19 |
| RRIRFRPPRLPRPRPRPQSMPRP | -0.434 |
| RRIRKRPPRLPRPRPRPIIPPRP | 0.152 |
| RRIRRRPPRLPRPRPRPFQSPRP | 0.0629 |
| RRIRCRPPRLPRPRPRPRERPRP | 0.875 |
| RRIRPRPPRLPRPRPRPQEHPRP | -0.225 |
| RRIRFRPPRLPRPRPRPHQRPRP | -0.183 |
| RRIRYRPPRLPRPRPRPPQWPRP | 0.204 |
| RRIRQRPPRLPRPRPRPKWAPRP | -0.0411 |
| RRIRTRPPRLPRPRPRPQQHPRP | -0.37 |
| RRIRGRPPRLPRPRPRPRCKPRP | 0.476 |
| RRIRYRPPRLPRPRPRPNPCPRP | -0.0242 |
| RRIRYRPPRLPRPRPRPSNLPRP | -0.729 |
| RRIRKRPPRLPRPRPRPGWGPRP | 0.432 |

| Sequence | shrunken log2 fold change |
| --- | --- |
| RRIRYRPPRLPRPRPRPYHYPRP | -0.556 |
| RRIRQRPPRLPRPRPRPFIDPRP | -0.0223 |
| RRIRWRPPRLPRPRPRPTESPRP | 0.189 |
| RRIRFRPPRLPRPRPRPDKSPRP | 0.053 |
| RRIRFRPPRLPRPRPRPFKMPRP | 1.77 |
| RRIRCRPPRLPRPRPRPGAEPRP | 0.239 |
| RRIRWRPPRLPRPRPRPTWAPRP | 0.369 |
| RRIRARPPRLPRPRPRPLQGPRP | 0.0704 |
| RRIRNRPPRLPRPRPRPTTQPRP | -0.222 |
| RRIRQRPPRLPRPRPRPACRPRP | -0.0513 |
| RRIRQRPPRLPRPRPRPWFWPRP | 0.00186 |
| RRIRTRPPRLPRPRPRPDLHPRP | -0.174 |
| RRIRCRPPRLPRPRPRPRAQPRP | 0.4 |
| RRIRWRPPRLPRPRPRPWCWPRP | 0.304 |
| RRIRGRPPRLPRPRPRPHCCPRP | 0.0841 |
| RRIRRRPPRLPRPRPRPACKPRP | 0.163 |
| RRIRQRPPRLPRPRPRPRSFPRP | -0.0281 |
| RRIRLRPPRLPRPRPRPGYWPRP | -0.0133 |
| RRIRRRPPRLPRPRPRPWFWPRP | 1.76 |
| RRIRQRPPRLPRPRPRPKIVPRP | -0.113 |
| RRIRLRPPRLPRPRPRPAKHPRP | -0.221 |
| RRIRDRPPRLPRPRPRPHISPRP | -0.0535 |
| RRIRWRPPRLPRPRPRPWRNPRP | 0.0636 |
| RRIRHRPPRLPRPRPRPGRIPRP | 0.136 |
| RRIRKRPPRLPRPRPRPWFIPRP | -0.131 |

| Sequence | shrunken log2 fold change |
| --- | --- |
| RRIRARPPRLPRPRPRPHTVPRP | -0.0287 |
| RRIRQRPPRLPRPRPRPFKMPRP | -0.217 |
| RRIRKRPPRLPRPRPRPVCWPRP | 0.897 |
| RRIRMRPPRLPRPRPRPWHMPRP | 0.00487 |
| RRIRKRPPRLPRPRPRPKCMPRP | 0.15 |
| RRIRQRPPRLPRPRPRPRSAPRP | 0.319 |
| RRIRSRPPRLPRPRPRPHNDPRP | -0.309 |
| RRIRKRPPRLPRPRPRPALWPRP | 0.27 |
| RRIRSRPPRLPRPRPRPASMPRP | 0.0141 |
| RRIRCRPPRLPRPRPRPFRIPRP | -0.128 |
| RRIRPRPPRLPRPRPRPLSVPRP | -0.121 |
| RRIRGRPPRLPRPRPRPFDEPRP | 0.294 |
| RRIRHRPPRLPRPRPRPKKCPRP | -0.225 |
| RRIRFRPPRLPRPRPRPCFHPRP | -0.894 |
| RRIRYRPPRLPRPRPRPCFYPRP | -0.909 |
| RRIRRRPPRLPRPRPRPDSCPRP | -0.00351 |
| RRIRDRPPRLPRPRPRPHEKPRP | -0.0396 |
| RRIRFRPPRLPRPRPRPTNVPRP | -0.254 |
| RRIRIRPPRLPRPRPRPLCNPRP | -0.807 |
| RRIRHRPPRLPRPRPRPVWFPRP | 0.0927 |
| RRIRLRPPRLPRPRPRPQCTPRP | 0.0199 |
| RRIRFRPPRLPRPRPRPIDEPRP | 0.121 |
| RRIRKRPPRLPRPRPRPAWMPRP | 0.212 |
| RRIRLRPPRLPRPRPRPHIYPRP | -0.297 |
| RRIRDRPPRLPRPRPRPIMKPRP | -0.195 |

| Sequence | shrunken log2 fold change |
| --- | --- |
| RRIRPRPPRLPRPRPRPHLMPRP | -0.0526 |
| RRIRMRPPRLPRPRPRPTAWPRP | 1.4 |
| RRIRGRPPRLPRPRPRPMDMPRP | -0.02 |
| RRIRGRPPRLPRPRPRPSHWPRP | 0.157 |
| RRIRRRPPRLPRPRPRPFLNPRP | -0.0441 |
| RRIRIRPPRLPRPRPRPLMRPRP | 0.466 |
| RRIRLRPPRLPRPRPRPSVEPRP | 0.0961 |
| RRIRLRPPRLPRPRPRPWDSPRP | -0.145 |
| RRIRGRPPRLPRPRPRPWSSPRP | -0.0552 |
| RRIRSRPPRLPRPRPRPYTIPRP | -0.808 |
| RRIRGRPPRLPRPRPRPTTSPRP | 1.11 |
| RRIRVRPPRLPRPRPRPKCDPRP | 0.0741 |
| RRIRFRPPRLPRPRPRPAVGPRP | 0.591 |
| RRIRIRPPRLPRPRPRPMSDPRP | -0.102 |
| RRIRERPPRLPRPRPRPSQWPRP | -0.176 |
| RRIRHRPPRLPRPRPRPPMFPRP | -0.214 |
| RRIRMRPPRLPRPRPRPLAMPRP | 0.548 |
| RRIRLRPPRLPRPRPRPLQDPRP | 0.0629 |
| RRIRNRPPRLPRPRPRPFLCPRP | -0.966 |
| RRIRLRPPRLPRPRPRPYNQPRP | -0.693 |
| RRIRLRPPRLPRPRPRPRHRPRP | -0.0544 |
| RRIRWRPPRLPRPRPRPAQPPRP | 0.236 |
| RRIRFRPPRLPRPRPRPTVFPRP | -0.0947 |
| RRIRYRPPRLPRPRPRPFRGPRP | -0.303 |
| RRIRHRPPRLPRPRPRPHGCPRP | -0.0438 |
